Reference: paper PMC5454392, “Selective BET bromodomain inhibition as an antifungal therapeutic strategy” (Nature Communications, 2017)
Like-named read-outs stand apart in the source and are kept apart here.

Assays:
[1] = target: T1, CaBdf1 BD1 Y248F (Candida albicans, UniProt Q5A4W8, Y248F); assay: Histone peptide microarray binding, YF mutant;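 on CaBdf1 BD1 Normalized (0 to 100%) YF mutant: normalized to spotted c-myc peptide positive control signal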; set-up: species or system C. albicans; conditions: YF mutant BD1; for CaBdf1 BD1 Normalized (0 to 100%) YF mutant: normalized array signal; for CaBdf1 BD1 Raw data YF mutant: peptide array signal
T1 construct: made in house; host or cells: E. coli BL21(DE3), inferred from the wild-type GST construct
T1 sequence (Q5A4W8 193-327 Y248F): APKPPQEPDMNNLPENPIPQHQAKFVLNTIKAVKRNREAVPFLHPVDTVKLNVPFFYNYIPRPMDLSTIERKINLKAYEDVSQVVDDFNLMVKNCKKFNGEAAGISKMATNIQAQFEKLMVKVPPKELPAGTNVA
Description: (§1) In short, arrays were blocked and incubated with 1 μM of purified CaBdf1 BD1 or BD2. Arrays were incubated with recombinant BDs for 2 h at 4 °C in binding buffer (Tris-HCl 50 mM pH 7.4, NP-40 0.1%, NaCl 150 mM, glycerol 10%). […] Assays were performed in duplicate. Images were acquired on a Bio-Rad ChemiDoc XRS Imaging machine and data were quantified using the array analyser software provided by Active Motif.

[2] = target: T2, CaBdf1 BD2 Y425F (Candida albicans, UniProt Q5A4W8, Y425F); assay: Histone peptide microarray binding, YF mutant;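 on CaBdf1 BD2 Normalized (0 to 100%) YF mutant: normalized to spotted c-myc peptide positive control signal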; set-up: species or system C. albicans; conditions: YF mutant BD2; for CaBdf1 BD2 Normalized (0 to 100%) YF mutant: normalized array signal; for CaBdf1 BD2 Raw data YF mutant: peptide array signal
T2 construct: made in house; host or cells: E. coli BL21(DE3), inferred from the wild-type GST construct
T2 sequence (Q5A4W8 361-501 Y425F): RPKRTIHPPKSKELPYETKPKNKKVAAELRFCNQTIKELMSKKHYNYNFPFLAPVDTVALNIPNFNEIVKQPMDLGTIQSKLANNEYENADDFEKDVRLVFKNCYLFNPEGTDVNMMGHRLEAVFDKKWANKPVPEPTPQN
Description: as §1

[3] = target: T3, CaBdf1 BD2 (Candida albicans, UniProt Q5A4W8); type: binding; conditions: wild-type BD2; for CaBdf1 BD2 Normalized (0 to 100%) WT: normalized array signal; for CaBdf1 BD2 Raw data WT: peptide array signal;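 on CaBdf1 BD2 Normalized (0 to 100%) WT: normalized to spotted c-myc peptide positive control signal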
T3 construct: made in house; host or cells: E. coli BL21(DE3)
T3 sequence (Q5A4W8 whole entry, looked up): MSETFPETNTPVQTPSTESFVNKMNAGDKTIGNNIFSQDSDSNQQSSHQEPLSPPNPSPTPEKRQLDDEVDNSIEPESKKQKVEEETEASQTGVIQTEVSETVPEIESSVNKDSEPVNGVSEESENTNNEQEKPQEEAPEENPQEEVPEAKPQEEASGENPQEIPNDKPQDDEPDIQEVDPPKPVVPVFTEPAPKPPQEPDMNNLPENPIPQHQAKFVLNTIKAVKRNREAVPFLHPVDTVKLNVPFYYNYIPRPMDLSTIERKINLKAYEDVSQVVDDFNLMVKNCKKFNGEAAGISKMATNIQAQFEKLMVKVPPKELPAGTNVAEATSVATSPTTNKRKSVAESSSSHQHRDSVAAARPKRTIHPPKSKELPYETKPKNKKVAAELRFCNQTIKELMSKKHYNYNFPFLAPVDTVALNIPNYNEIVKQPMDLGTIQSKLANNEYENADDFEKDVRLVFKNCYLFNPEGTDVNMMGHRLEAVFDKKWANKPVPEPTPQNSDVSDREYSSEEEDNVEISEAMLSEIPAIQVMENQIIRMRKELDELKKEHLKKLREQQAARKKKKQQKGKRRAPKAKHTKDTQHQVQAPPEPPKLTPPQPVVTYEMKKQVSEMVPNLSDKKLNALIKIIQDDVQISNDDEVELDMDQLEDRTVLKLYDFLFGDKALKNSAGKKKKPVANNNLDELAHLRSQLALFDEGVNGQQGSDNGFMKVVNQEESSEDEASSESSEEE
Description: (§2) In short, arrays were blocked and incubated with 1 μM of purified CaBdf1 BD1 or BD2. Arrays were incubated with recombinant BDs for 2 h at 4 °C in binding buffer (Tris-HCl 50 mM pH 7.4, NP-40 0.1%, NaCl 150 mM, glycerol 10%). […] Assays were performed in duplicate.

[4] = target: T4, CaBdf1 BD1 (Candida albicans, UniProt Q5A4W8); type: binding; conditions: wild-type BD1; for CaBdf1 BD1 Normalized (0 to 100%) WT: normalized array signal; for CaBdf1 BD1 Raw data WT: peptide array signal;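 on CaBdf1 BD1 Normalized (0 to 100%) WT: normalized to spotted c-myc peptide positive control signal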
T4 construct: made in house; host or cells: E. coli BL21(DE3)
T4 sequence (Q5A4W8 whole entry, looked up): T3 sequence (Q5A4W8 whole entry, looked up)
Description: as §2

Row | Sequence | CaBdf1 BD1 Normalized (0 to 100%) YF mutant [1] | CaBdf1 BD1 Raw data YF mutant ([1]; first of two raw-data columns) | CaBdf1 BD1 Raw data YF mutant [1] | CaBdf1 BD2 Normalized (0 to 100%) YF mutant [2] | CaBdf1 BD2 Raw data YF mutant ([2]; first of two raw-data columns) | CaBdf1 BD2 Raw data YF mutant [2] | CaBdf1 BD2 Normalized (0 to 100%) WT [3] | CaBdf1 BD2 Raw data WT ([3]; first of two raw-data columns) | CaBdf1 BD2 Raw data WT [3] | CaBdf1 BD1 Normalized (0 to 100%) WT [4] | CaBdf1 BD1 Raw data WT ([4]; first of two raw-data columns) | CaBdf1 BD1 Raw data WT [4]
1 | A Rme2a T Kme3 Q T A R Kme2 S T G G K A P R K Q | 0.554% | 0.005487 | 0.006859 | 0.244% | 0.002427 | 0.003398 | 0.296% | 0.01579 | 0.001373 | 0.145% | 0.002672 | 0.003207
2 | A Rme2a T Kme3 Q T A Rme2a K S T G G K A P R K Q | 0.658% | 0.006516 | 0.004801 | 0.293% | – | 0.002427 | 0.444% | 0.01098 | – | 0.363% | 0.004276 | 0.00481
3 | A Rme2s T Kac Q T A R Kme1 S T G G K A P R K Q | 0.727% | 0.007202 | 0.002743 | 0.244% | 0.002427 | 0.002427 | 0.333% | 0.01304 | 0.004804 | 0.798% | 0.009621 | 0.005879
4 | A Rme2s T Kac Q T A R Kme3 S T G G K A P R K Q | 0.727% | 0.007202 | 0.004458 | 0.293% | – | – | 0.259% | 0.01579 | 0.0006863 | 0.616% | 0.005879 | 0.006948
5 | A Rme2s T Kac Q T A Rme2s K S T G G K A P R K Q | 0.485% | 0.004801 | 0.003086 | 0.293% | – | 0.003398 | 0.518% | – | 0.01235 | 0.363% | 0.003741 | 0.005345
6 | A Rme2s T Kme1 Q T A R Kme1 S T G G K A P R K Q | 0.658% | 0.006516 | 0.005144 | 0.342% | 0.003398 | – | 0.518% | 0.01579 | 0.005491 | 0.29% | 0.003741 | 0.004276
